These substances were tested against mitochondrially targeted human MSRA tagged with tGFP at its C-terminus (targeting sequence of ornithine carbamoyltransferase fused to the N-terminus of MSRA) (assay: co-immunoprecipitation (anti-FLAG IP, anti-tGFP blot), band intensity quantitated with Odyssey infrared scanner). Details: HEK293 cells; 3 separate experiments; parent: est. 100; read off a plot.

**Q.** Which percent of parent does the source give for FLAG-tagged human Ndufaf2 M160V here?
**A.** 90%

**Q.** FLAG-tagged human Ndufaf2 M85V was tested. Which percent of parent did it give?
**A.** 90%

**Q.** With FLAG-tagged human Ndufaf2 M85V; M160V as the substance, how does the percent of parent read?
**A.** 36%
